Assay [1] has as its target human interleukin 5 receptor 2 HSIL5R2 (human). The assay can be described thus: Scatchard analysis, 125I-labeled human IL-5 on COS7 cells transfected with pCAGGS.HSIL5R2.
The target of assay [2] is human interleukin 5 receptor HSIL5R (human). The assay is described as follows: Scatchard analysis, 125I-labeled human IL-5 on COS7 cells transfected with pCAGGS.HSIL5R.
Assay [3] has as its target murine interleukin 5 receptor encoded by pIL-5R.8 (membrane bound, low affinity IL-5R) (mouse). The assay can be described thus: Scatchard analysis, 35S-labeled IL-5 on COS7 cells transfected with pIL-5R.8 (CDM8 vector).
Assay [4] concerns the target human interleukin 5 receptor 2 HSIL5R2 (human). The assay is described as follows: Scatchard analysis, 35S-labeled mouse IL-5 on COS7 cells transfected with pCAGGS.HSIL5R2.
Assay [5] concerns the target high affinity IL-5R on Y16 cells (mouse) (UniProt P21183). The assay can be described thus: Scatchard analysis, 35S-labeled IL-5 on Y16 cells, high affinity sites.
The target in assay [6] is low affinity IL-5R on Y16 cells (mouse) (UniProt P21183). The assay is described as follows: Scatchard analysis, 35S-labeled IL-5 on Y16 cells, low affinity sites.
Assay [7] deals with human interleukin 5 receptor HSIL5R (human). The assay is described as follows: Scatchard analysis, 35S-labeled mouse IL-5 on COS7 cells transfected with pCAGGS.HSIL5R.
The target of assay [8] is murine interleukin 5 receptor encoded by pIL-5R.8 (membrane bound, low affinity IL-5R) (mouse). The assay can be described thus: Scatchard analysis, 35S-labeled IL-5 on COS7 cells transfected with pCAGGS.5R.8.

The Kd is the free concentration of one partner at which half of the binding sites on the other are occupied at equilibrium, for simple one-to-one binding. A lower Kd goes with tighter binding.

Regarding “human interleukin 5 (from UniProt P05113) (ligand)”, the Kd was found to be 0.41 nM in assay [1] and 0.59 nM in assay [2].
With “murine interleukin 5 (from UniProt P04401) (ligand)”, the dissociation constant Kd in assay [3] turned out to be 2 nM; in assay [4] it was 0.355 nM; in assay [5], 0.02 nM; in assay [6], 5.1 nM; in assay [7], 0.25 nM; in assay [8], 9.6 nM.

For the origin of these results see patent US5760204.
